Assay results: patent US20230034906A1 (TRINOMAB BIOTECH, published 2023)
Substitutions are numbered along the chain they refer to.

What was measured:
[1] = molecular target: T1, N208Q mutant of gB glycoprotein (gB_Towne protein) (human cytomegalovirus, strain Towne, UniProt F5HB53 25-700); assay: indirect ELISA, antibody titrated on gB glycoprotein mutant
T1 construct: also called gB glycoprotein N208Q mutant
T1 chain: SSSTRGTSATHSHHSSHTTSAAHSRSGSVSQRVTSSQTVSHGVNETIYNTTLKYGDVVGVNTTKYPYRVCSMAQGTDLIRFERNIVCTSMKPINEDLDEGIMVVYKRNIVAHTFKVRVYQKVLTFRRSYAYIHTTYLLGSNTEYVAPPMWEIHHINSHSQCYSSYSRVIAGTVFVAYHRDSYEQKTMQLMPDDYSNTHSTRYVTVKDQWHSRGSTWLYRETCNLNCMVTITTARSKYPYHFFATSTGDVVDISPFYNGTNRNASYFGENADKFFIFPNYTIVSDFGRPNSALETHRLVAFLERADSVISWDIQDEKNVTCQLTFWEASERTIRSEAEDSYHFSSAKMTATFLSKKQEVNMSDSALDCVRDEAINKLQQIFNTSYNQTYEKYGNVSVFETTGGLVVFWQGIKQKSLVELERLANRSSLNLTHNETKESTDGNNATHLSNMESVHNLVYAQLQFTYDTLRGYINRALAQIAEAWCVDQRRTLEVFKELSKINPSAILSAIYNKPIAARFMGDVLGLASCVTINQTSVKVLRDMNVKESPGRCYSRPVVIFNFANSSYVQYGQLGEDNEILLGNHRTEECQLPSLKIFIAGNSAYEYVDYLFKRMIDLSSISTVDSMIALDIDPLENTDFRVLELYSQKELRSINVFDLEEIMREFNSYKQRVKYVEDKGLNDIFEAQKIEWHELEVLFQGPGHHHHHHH

[2] = molecular target: T2, gB_Towne protein with N281 mutated into glutamine (human cytomegalovirus, strain Towne, UniProt F5HB53 25-700); assay: as above
T2 chain: T1 chain with Q184N, N257Q

[3] = molecular target: T3, gB_Towne protein with N452 mutated into glutamine (human cytomegalovirus, strain Towne, UniProt F5HB53 25-700); assay: as above
T3 chain: T1 chain with Q184N, N428Q

[4] = molecular target: T4, HCMV gB glycoprotein of standard strain Towne (gB_Towne strain) (human cytomegalovirus, strain Towne, UniProt F5HB53 25-700); assay: SPR (Biacore), antibody captured on anti-human IgG (Fc) CM5 chip, gB glycoprotein as analyte
T4 construct: also called antigen protein gB0049

Measured: binding result

B1: TRN1019 (antibody, V domains shown)
VH: QVQLVQSGAEVKKPGESLKISCKGSGYTFTNYWIGWVRQMPGAGLEWMAIIFPRDSYSAYSPSFQGRVTISVDKSISTAYLHWSSLEASDTAVYYCAIYNDLRSGNSWGQGTPLIVSS
VL: DIQMTQSPSSLSASVGDRVTITCRASQSITKYLNWYQQKPGRAPKLLIHTTSTLQSGVPSRFSGSGSGTDFTLTISSLQLEDFGTYYCQQSFSTLWTFGQGTKLDIKR
notes: Fully human antibody; kappa light chain
binds: all assays above
